Experiment: soluble fraction after stress (log2 fold change); higher = more stays soluble; pooled small domains, quantitative proteomics
Details: stress: pH 4
Method in brief: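 Aggregation propensity here comes from the fold change in the soluble amount of each small protein domain after acid stress, measured in pooled custom libraries by high-throughput quantitative proteomics. The acid stress was pH 4. On the log2 scale, higher values mean more of the domain stayed soluble.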

Sequence	soluble fraction (log2)
HMNRPYVELFSGLGQEEAQQIVQKLQEDEVDYKFSGDSTILVKEDVVDQTKATLVQEGYPKS	-0.392
HMTYPGSIALVNPKHEAFVQHYVATSGSRGQAAKLAGVTTTTARNLLQDVEATARIRYLNAQQFQ	0.22
HMGNHMSFKMWGEQLQEAFRALETYDTQKAKTILNELVRFPIDSDITKALKGIISNIDDMMA	-0.721
HMALSTRERMSFVLEVLKEKEFIPFVDLFSPEEGRAGVVVTFLALMELMKDSLIEIVQTKNFGEIHVRARL	-1.07
HMKDNIRSILEDIPNIGPGRRRALLKHFGSIEAIRRASLEDLIKVDGMNRNAALSIMEYFGM	-0.24
HMTTMYKSDVKGINYDVKAKSWFLRITFNGNQIPIGHFKTEEDAINVKQQLIPYIESKDYTSILAVKAKYS	≥ 0.43
HMQALDETTVSRIRQKAAARNLLLKVLAGQLGVARPTLSNVLARREAPSAALAARIRAFLDSP	0.159
HMEVVVPDFEKIYIRDLDKFVEGHNVRYEIVDSIYNLEKDKGTVVDQDPEPGSKVKHGRVIYLTVNAML	-0.678
HMYPNEFPRKVMSVFESSGLEMFRTIEMLLAIPEYETPLPYGSGVSRSDIFVLAKSAGNLVSITV	-0.314
HMSMRIDTNTLNYYVQNAQISLSVLRTKINNLDQFLSGEKQPTFNQLSEIAKKINVPTGLLLLNKS	-0.698
HMETIGENIKTYRQKKGYTQEEVANRLHVTRQTISKWEKNYSIPDAEVLVKLADVLEVQTSQLLGV	≥ 0.43
HMREPIPVPSRPIRAGDLVEIPGTNRPAEVTAVKGDRLVLKAGVLSMTVKNDEVRLIEDDERAAM	0.208
HMQMPDLTGKPRAEAVTTLAALGFTDVKFLDASAGDEPLDYVADQVVRTSPEAGAALASGQQITIYLAT	-0.0191
HMELLTNPLTGREVEVLTLMALGQTNHEIARQLYLATGTVKAHTSSIYRKLDVANRTEAVARARQLGIL	-0.448
HMPDIFDRGTAHITDAASGVAITFTRTFRIPPEVTMTHKGGTVVAIARLVGSITTGGFTAVLENT	-0.0848
HMETTVPNVLNHNISTGEILLKENNLNFRIQYIPSNKDEAVGTIINSVPTSGEKVKFGTVVDLKVL	-0.0719
HMQKDAYVPDIISKLKSSRMIVVEGTIYPLLTRLKNTGLLSYRWEESLQGPPRKYYSITEQG	-0.0816
HMGFDTSMNKYTIDDLLKLLELGSNPSQAEIVNKITNFNTIFVDNSGVIQFLNNIQDKLLDNFK	-0.95
HMQISDNTILEDAVSRIIDENPKSVSDYFQGKEAVVGFFIGQIMRETKGTANPKIAREIVISHLEAI	-0.819
HMPLNAHIVGRGKRDRRGKRGAPYSIVLELGRDENGKRIQKWYSGYPTKAAAEEDKIRMLRELQTGEYVPQ	0.153
HMQNNKITIYISGAVNRPGIVTIESDKRLYDAVELLGGTTKEADLNGVNLSVRLEDEQHYIIPKIGEA	-0.491
HMAHTGGNTLTREKAVSVRSASDALLFEIHWNETPREDILSTREEKVDGKTYSIITIRTGKGREDHYYLLS	0.295
HMEEQIEVPVQINGKVRSKLTVAPETDEKQIEALALADPKVQQQLEGKRVLKVIVAQKRLVNIVA	-0.035
HMLTTMSSQWKPSLDAIEILEKSGIAYSFIEDAIPEFVLYWRERGISHGAWNTKFVEHIRKQWAKFEAS	0.21
HMSDKNVYGKYKNVFLSDEEFSELKQFYPNDWSDRIETLSEGIELKGYKYKNYLLAIKKWAEYEGQKAD	-0.77
HMYTGSEGMAGLEGRAVTEVGPEAGTVLVKGEYWQARSDEPIATDRKIRVIRLEGLRLRVAEIHPEG	0.169
HMLSTRERMSSLMAQLQVQQFMPFHRLFTISEGRMGVIVTFLAMMELVKENLIKLIQAQEYGPIHVSLG	0.22
HMAIDYYQTLINLGYKLQDRGDYWQTSAIHRGGDNPTALQIYKNTGVWKDYVSGGGFKPFKALVEKSD	-0.35

Sequence	soluble fraction (log2)
HMLSLSDIINDVMERLTREKNLTFDELLGEKRERRRIVYTFLALLELIRLKMIKAYQTAAFGVIRIFPR	-1.15
HMGASFITSSKDNAINIRESATTDSKVIETIKNGEILESTEKSGDWHKVTYYNSEIKKSFTGYIHNSQLK	-0.151
HMRLSESLLDDIPGIGAARKRALLQSFGSVRKLRHADAEEIAAKVPGIGLNFAEKIVEALRKK	0.187
HMHYKLIIFENHTKSTSLDITPEQARQILGVTDYTPEQYEILAEITNRPASYFMDDLVDYYVD	-1.53
HMNIEEAESILKEIKTVLTDKEYEVYTLRAKGFTYQEIASLLNTTTKSVDGALSRIKTKINNIK	0.0204
HMESKKKTYTVKSGDTLVSILKREGVPQELIFKDYLGLFLELNPQISDINKLRVGQEIVLPVPG	0.3
HMELLSGTVEKVLTSGVLVKLPGGAIGFIPNSEMGTPRGTNHGKMFPAGTPLQVMVVEVNQDRGRITLSR	-0.389
HMNTEKRVFAGVENTRLDHFLVEQFPEFSRTFIQQMIKSANVIVNGNIEKASYKLREGDTIMTRPM	-0.0899
HMLTAPMPGTIQQILVTKGQKVRSGQTLMILEAMKMEHKIKAPNSGEIISINYSLGNRVEMGANLIEI	0.0752
HMSTADGGYPSIVINDGRVIDTNLQKLGLDRSWLSAELKRQGKGSEKDIFLMTVNQRREVYISVKEA	-0.589
HMQQSVSSLVRRYMLQTIPGINFSLKSTALALNMSDRTLQRKLLSENTSYQIILDDVRKELAIKYLKE	-0.43
HMSKININTITESELKELPISTVKQKAIQDYLIDRGFISNIYDLLDIKEITSDDVSLLKKVVNVKLPY	-0.796
HMGVPTEQEIGKRILAWRKLRGMTLQQLADKAGVGLTTIHNLETGLWYAKMPTYLYIAEALGVSLDALIYG	0.0266
HMEKALEVKYQKMVELLGDQSTFYVDEVKKIFPEMKKSSLYWNMSKLVEGGYLRRIRNGVYAFNE	-0.124
HMRRSVYQANVLDAIKHLVDQNELATTKAIAEYIGDDYQGNVSRAIRELLADRKIKKLPKVGVLQPYEA	0.127
HMDPEQLKIAINTKMPFGKYSGRPLLLLPEPYLVWFKQQGFPDSKLGSQLAMMYEVKLNGLEQMLMPLL	-0.506
HMNVQGFVFDLAEPLDKVPSIEGFPLKLEDPLTLVAAVNKDRSINALFAELSKLNIKIKSMRNE	-0.458
HMNADAIVGRTGVVTEAIAADGFGRVQIDGDSWKAKASGNNGIDVGAKVRVLRIDSIILTVEK	0.059
HMQYDALVLNLLQEKNLTSESLKDAQRAFAKSHNLSTLPSKSQILQAYFQLLEQGKIEKNPDFELLL	0.0152
HMYSYSGSVINTYKVPVSVVLKDANGSAIASWDLPVDQSLGISAKDIATSSGTIEITGDGVNETKTVTFTK	-0.159
HMGDPEYFKKQLGDFMDRFNITSEDIKNLSIAGAINRMMNNAEGEDKTVLSKLLETVNKSGVGNLPAKTI	-0.144
HMPIDNTLLSRITSLGVSTTEAEKLISKHGEEALKANLEVVEERLSKPNLPLLDSPAAYLKTALKNG	0.224
HMLPDLQKAIDTFLYEVDSRINTSFEELIDKLNSKEEAVAFFLALLEAVRWGFIKAEQESNSINIKK	-1.49
HMAKQQTTTTAHVVTTGETLYSIAQKNGISVEELKKSNNITSDKLRPGQTLHITKVSKTSSTAK	0.129
HMRPEKLVLKALRGAHGPLSAEEVAGRIEADGGAGLDVARVEHVLGQLERSGTVAALGGGKYLALR	0.123
HMDRMFQPETWSKIYQWVMNDPQVPDKEDVLALIRRHFGNFEKLIKLLHYLDGGKPYAYLSEH	0.411
HMEGVTVPDVTRISLDEAEELLTSYGLRFEVADRRANSAFPGNYVIDQAPSAEVIVKPNRKIYLTVNAA	-0.188

Reference: the domain aggregation screens of Martell et al. (2025)
